Biological target: the molecule itself
Assay: cryo-EM structure; single particle analysis of RNase E (1-529) at 10 uM without RNA, 8 mM CHAPSO; 7.8 A reconstruction, C1

B1: RNase E catalytic domain (1-529) (domain or fragment)
chain: not shown
notes: RNase E, E. coli, catalytic domain, residues 1-529; Studied without RNA; 8 mM CHAPSO added before grid freezing; also called RNase E catalytic core; RNase E (1-529); source: E. coli BL21(DE3), plasmid pRne529-N, purified (Ni chelating column, gel filtration)
stoichiometry N: 4
